The record followed here is patent US20240294668A1 (SHANGHAI SYNVIDA BIOTECHNOLOGY, published 2024).

The target of assay [1] is T1, human FIXa (activated coagulation factor IX) (human, UniProt P00740 47-191; P00740 227-461). The assay can be described thus: cell-based or functional assay.
For assay [2], the target named is T1, human FIXa (activated coagulation …). The assay can be described thus: ELISA, FIXa antigen coated on the plate, anti-mouse secondary antibody, OD450. As to the method: After culturing hybridoma cells for 7 days, ELISA was used for detecting positive antibodies. 0.1 μg/100 μl of FIXa antigen was coated on an ELISA plate (CORNING), incubated at 37° C. for 1.5 h; then blocked with 2% BSA at 37° C. for 1 h; and then primary antibody, the supernatant of cultured cells, was added and incubated at 37° C. for 1.5 h. After that, mouse secondary antibody was added and incubated at 37° C. for 30 min. Finally, chromogenic substrate TMB (Thermo) was added for 5 min at room temperature in dark, then stop solution 2M H₂SO₄ was added to terminate the reaction. Antibody-positive cell lines were screened according to the absorbance value measured at 450 nm by a spectrophotometer (Thermo Fisher scientific company). Then the cell lines were cultured for cloning in a semi-solid medium ([…] company), with single clones selected into 96-well plates after 7 days. […]
Following the instructions provided in the Sigma company's subtype detection kit, the antigen was coated, blocked, incubated with primary antibody (0.1 μg/100 μl), incubated with isotype-specific reagent at room temperature for 30 minutes, incubated with secondary antibody (R-antiGoat-HRP) for chromogen development, with stop solution added to terminate the reaction, and finally the absorbance was measured at 450 nm. […]

T1 sequence (P00740 47-191 limits assumed, chain 1 of 2): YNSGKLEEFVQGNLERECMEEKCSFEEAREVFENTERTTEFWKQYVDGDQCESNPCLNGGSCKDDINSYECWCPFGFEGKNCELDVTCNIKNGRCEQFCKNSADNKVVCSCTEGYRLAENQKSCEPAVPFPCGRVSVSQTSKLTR
T1 sequence (P00740 227-461 limits assumed, chain 2 of 2): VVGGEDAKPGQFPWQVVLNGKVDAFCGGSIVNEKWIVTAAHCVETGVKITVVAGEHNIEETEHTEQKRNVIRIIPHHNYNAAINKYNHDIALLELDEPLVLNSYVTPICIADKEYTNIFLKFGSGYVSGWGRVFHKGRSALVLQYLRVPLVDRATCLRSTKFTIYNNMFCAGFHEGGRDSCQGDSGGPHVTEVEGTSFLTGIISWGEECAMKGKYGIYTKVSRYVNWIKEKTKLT

B1: FIXa-4 antibody (antibody, V domains shown)
VH: QVTLKESGPGILKPSQTLSLTCSFSGFSLNTPGMGVGWIRQPSGKGLEWLAHIWWDDDKYYNPSLKSQLTISKDTSRNQVFLKITSVDTADTATYYCARSDDVSYALDYWGQGTSVTVSS
VL: DIQMTQSPASLSASVGETVTITCRASENIDSYLAWYQQKQGKSPQLLVYNAKTLADGVPSRFSGSGSGTQFSLKIDSLQPEDFGSHYCQHHDGTTWTFGGGTKLEIK
notes: A subtype test is described, but the isotype and constant regions are not reported; also called anti-FIXa monoclonal antibody; FIX-4 antibody
In the case of B1, in assay [1], the “activated partial thromboplastin time (APTT), IC50” value is 7.71 µg/mL and the “activated partial thromboplastin time (APTT), fold over control” value stood at 3.5 times. In assay [2], this molecule displayed an EC50 of 0.0947 µg/mL.

What is called EC50 is the concentration that produces a half-maximal response. A higher EC50 goes with weaker potency.
